Experimental data taken from patent US20160115241A1 (Amgen, published 2016).

Assays:
[1] = target: T1, folate receptor 1 (FOLR1) (human, UniProt P15328 25-234); experiment: cell-based or functional assay
[2] = target: T1, folate receptor 1 (FOLR1); experiment: cell-based or functional assay; remark: listed apart in the source

T1 sequence (P15328 25-234): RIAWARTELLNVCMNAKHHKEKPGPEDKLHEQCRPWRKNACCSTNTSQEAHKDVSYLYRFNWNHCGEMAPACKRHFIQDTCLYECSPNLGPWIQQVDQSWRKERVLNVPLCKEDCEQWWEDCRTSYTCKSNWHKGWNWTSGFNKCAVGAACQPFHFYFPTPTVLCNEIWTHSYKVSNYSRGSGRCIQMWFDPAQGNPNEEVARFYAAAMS

B1: P136795.3 (anti-FOLR1/CD3ε heterodimeric bispecific antibody) (bispecific antibody)
chain 1: EVQLVESGGGLVQPGGSLKLSCAASGFTFNSYAMNWVRQAPGKGLEWVARIRSKYNNYATYYADSVKGRFTISRDDSKNTAYLQMNNLKTEDTAVYYCVRHGNFGNSYVSWWAYWGQGTLVTVSSGGGGSGGGGSQSVLTQPPSVSEAPRQRVTISCSGSSSNIGNNAVNWYQQLPGKAPKLLIYYDDMLSSGVSDRFSGSKSGTSASLAISGLQSEDEADYYCAAWDDSLNGVVFGGGTKLTVLASTKGPSVFPLAPCSRSTSESTAALGCLVKDYFPEPVTVSWNSGALTSGVHTFPAVLQSSGLYSLSSVVTVPSSNFGTQTYTCNVDHKPSNTKVDKTVGGGGSAAAEPKSSDKTHTCPPCPAPEAAGGPSVFLFPPKPKDTLMISRTPEVTCVVVDVSHEDPEVKFNWYVDGVEVHNAKTKPREEQYNSTYRVVSVLTVLHQDWLNGKEYKCKVSNKALPAPIEKTISKAKGQPREPQVYTLPPSREEMTKNQVSLTCLVKGFYPSDIAVEWESNGQPENNYDTTPPVLDSDGSFFLYSDLTVDKSRWQQGNVFSCSVMHEALHNHYTQKSLSLSPGK
chain 2: not shown
Question: With B1 as the binder, how does the “EC50 of specific lysis, Cal-51 cells (printed Cal-61) with human T cells” value [1] read?
Answer: The value was 1.21 pM.

Question: What about the “EC50 of specific lysis, T47D cells with human T cells” value [1] of the same binder?
Answer: Its value is 1.26 pM.

Question: And the “EC50 (pM) for IFN-γ release by T cells in presence of T47D cells” value [2]?
Answer: The value was 27.1 pM.

Question: What about the “EC50 (pM) for IL-2 release by T cells in presence of T47D cells” value [2] of the same binder?
Answer: The value was 20.3 pM.

Question: And the “EC50 (pM) for IL-10 release by T cells in presence of T47D cells” value [2]?
Answer: The value was 28.3 pM.

Question: And the “EC50 (pM) for IL-13 release by T cells in presence of T47D cells” value [2]?
Answer: The value was 27.8 pM.

Question: What about the “EC50 (pM) for TNF-α release by T cells in presence of T47D cells” value [2] of the same binder?
Answer: Its value is 12.5 pM.
